1 molecule from article PMC5645147, “Binding of a C-type lectin’s coiled-coil domain to the Domeless receptor directly activates the JAK/STAT pathway in the shrimp immune response to bacterial infection” can be followed below.

This data set addresses T1, native STAT, LPS-challenged shrimp (Marsupenaeus japonicus (kuruma shrimp), UniProt D0VYJ1 1-801).
T1 sequence: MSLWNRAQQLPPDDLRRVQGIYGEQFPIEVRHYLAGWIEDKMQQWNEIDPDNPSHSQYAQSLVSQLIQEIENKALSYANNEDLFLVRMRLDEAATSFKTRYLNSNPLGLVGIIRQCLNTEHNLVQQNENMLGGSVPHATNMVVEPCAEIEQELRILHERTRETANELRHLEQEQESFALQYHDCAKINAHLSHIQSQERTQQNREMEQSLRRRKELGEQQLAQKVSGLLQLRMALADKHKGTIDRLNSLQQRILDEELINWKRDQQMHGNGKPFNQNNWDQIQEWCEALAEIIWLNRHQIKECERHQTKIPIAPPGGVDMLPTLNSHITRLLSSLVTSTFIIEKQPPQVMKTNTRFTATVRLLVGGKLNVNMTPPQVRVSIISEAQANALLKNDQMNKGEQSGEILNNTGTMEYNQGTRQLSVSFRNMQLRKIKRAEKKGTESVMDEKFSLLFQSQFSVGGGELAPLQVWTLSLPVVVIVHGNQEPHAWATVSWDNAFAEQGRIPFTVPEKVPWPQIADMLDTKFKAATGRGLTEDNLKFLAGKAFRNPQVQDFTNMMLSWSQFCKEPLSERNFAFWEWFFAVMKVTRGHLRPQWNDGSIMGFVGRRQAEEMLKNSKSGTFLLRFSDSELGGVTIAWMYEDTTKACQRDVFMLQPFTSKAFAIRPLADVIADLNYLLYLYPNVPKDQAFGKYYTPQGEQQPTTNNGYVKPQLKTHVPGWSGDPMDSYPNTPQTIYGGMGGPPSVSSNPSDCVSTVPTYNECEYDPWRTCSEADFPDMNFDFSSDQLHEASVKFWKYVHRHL
Put plainly: EMSA; STAT from LPS-injected shrimp; binding increased; 2 ug protein, 20 fmol Dig-probe, Beyotime EMSA binding buffer (from 5x; composition and pH not stated), 20 min with probe, room temperature (stated for competition); 6% PAGE, 0.5x TBE. The settings on record: chain copies: 2, blunt. On the technique in general: In EMSA bound probe runs differently from free probe, usually more slowly.

B1: CruI-1 promoter STAT probe (dsDNA)
DNA 1: GCGTAAGGTTTTCTTGGAATA
DNA 2: TATTCCAAGAAAACCTTACGC
For the molecule B1, the binding result is “binds”.
